Paper PMC8467750

What was measured:
[1] = biological target: histamine H2 receptor fused C-terminally to the small fragment of NanoLuc (H2R–NlucC) (human) (UniProt P25021); experiment: split reporter (BiFC, NanoBiT); split-NanoLuc mini-G protein recruitment assay in live HEK293T cells transiently co-expressing receptor–NlucC and NlucN–mini-G; recruitment upon histamine (serial dilutions), 37 °C, L-15 medium with 10 mM HEPES, furimazine; AUC of 45 min traces normalised to 100 µM histamine in the canonical system (H2R–mGs or H4R–mGsi, 100%) and L-15 (0%); N = 3, each in triplicate
[2] = biological target: histamine H4 receptor fused C-terminally to the small fragment of NanoLuc (H4R–NlucC) (human) (UniProt Q9H3N8); experiment: as above
Chain of UniProt Q9H3N8 (Q9H3N8 whole entry, the tested form may be a part): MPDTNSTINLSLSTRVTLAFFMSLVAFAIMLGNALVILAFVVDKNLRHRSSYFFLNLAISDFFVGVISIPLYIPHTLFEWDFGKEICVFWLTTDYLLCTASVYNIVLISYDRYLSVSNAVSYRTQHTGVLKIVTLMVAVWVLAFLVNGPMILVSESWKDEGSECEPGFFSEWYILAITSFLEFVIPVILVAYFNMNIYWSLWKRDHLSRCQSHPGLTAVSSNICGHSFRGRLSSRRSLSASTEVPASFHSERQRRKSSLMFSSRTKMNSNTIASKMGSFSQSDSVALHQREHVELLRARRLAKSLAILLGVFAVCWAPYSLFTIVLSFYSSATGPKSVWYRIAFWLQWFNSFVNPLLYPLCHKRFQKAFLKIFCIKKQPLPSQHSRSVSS

Chain of UniProt P25021 (P25021 whole entry, the tested form may be a part): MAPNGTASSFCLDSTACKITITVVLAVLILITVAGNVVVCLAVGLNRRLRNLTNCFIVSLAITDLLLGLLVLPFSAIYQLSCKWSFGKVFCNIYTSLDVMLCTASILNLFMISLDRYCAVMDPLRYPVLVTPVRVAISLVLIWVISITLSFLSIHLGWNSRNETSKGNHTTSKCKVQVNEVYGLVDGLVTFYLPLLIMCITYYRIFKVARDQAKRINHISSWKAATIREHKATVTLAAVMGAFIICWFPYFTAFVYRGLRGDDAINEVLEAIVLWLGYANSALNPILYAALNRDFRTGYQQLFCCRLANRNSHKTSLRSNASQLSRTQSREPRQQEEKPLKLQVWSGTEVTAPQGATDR

Substance	Emax of histamine (mini-G recruitment) [1]	pEC50 of histamine (mini-G recruitment) [1]	Emax of histamine (mini-G recruitment) [2]	pEC50 of histamine (mini-G recruitment) [2]
mini-G protein mGs fused N-terminally to the large fragment of NanoLuc (NlucN–mGs)	100%	6.86	-13.5%	
mini-G protein mGsq fused N-terminally to the large fragment of NanoLuc (NlucN–mGsq)	29.6%	5.48	13.8%	
mini-G protein mGsi fused N-terminally to the large fragment of NanoLuc (NlucN–mGsi)	26.8%	5.3	100%	6.6
